From US20110311475A1 (published 2011) come the findings set out here.

In assay [1] the target is T1, IL2 Receptor beta protein (Fc Chimera Active, Abcam plc) (human, UniProt P14784 27-240).
T1 construct: In the assay it was coupled to DyLight 649 conjugated Protein A; also called IL-2Rβ subunit; human Interleukin-2 receptor beta (CD122); Fc part of the bought chimera not given
T1 sequence (looked up): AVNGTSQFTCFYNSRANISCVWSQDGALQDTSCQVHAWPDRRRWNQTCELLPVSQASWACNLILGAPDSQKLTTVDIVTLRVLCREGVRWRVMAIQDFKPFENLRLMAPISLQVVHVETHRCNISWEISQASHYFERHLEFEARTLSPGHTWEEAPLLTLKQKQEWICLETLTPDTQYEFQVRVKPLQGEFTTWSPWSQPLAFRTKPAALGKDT
As to the kind of experiment: bead-based flow cytometric immunoassay, receptor-Fc chimera/Protein A-DyLight 649 (FIG. 19C). The text has this:
(§1) Both goat anti-human IL-21 and rabbit anti-human IL-21 antibodies were initially tested using a Western blot technique to confirm suitable detection of the IL-21 variant proteins with the predicted size. The success of antibody-to-bead conjugation was verified using PE Goat anti-Rabbit IgG Detector (BD Biosciences). To detect the receptor interaction of bead-captured IL-21 variants with the Interleukin-21 receptor proprietary subunit, the Interleukin-4 receptor alpha subunit, the Interleukin-2 receptor alpha or the Interleukin-2 receptor beta, appropriate receptor-Fc-chimera proteins were coupled with a Protein-A-fluorochrome complex suitable for flow cytometric evaluation. […] 50 μl of antibody-coated beads and serial dilutions of IL-21 variant proteins, with final concentrations ranging from 100 pg/ml to 1 μg/ml, were incubated together with the fluorescence conjugated receptor-chimera-Protein-A complexes in excess in 96-well plates for 3 h on a titer plate shaker. […] Bead particles were discriminated on the basis of size and fluorescence (see FIGS. 19A and B) on a BD FACSCanto II system with BD FACSDiva software (BD Biosciences). […]

The target in assay [2] is T2, Recombinant Human IL-4 Rα Fc Chimera protein (R&D Systems) (human, UniProt P24394 26-231).
T2 construct: In the assay it was coupled to DyLight 649 conjugated Protein A; also called IL-4Rα subunit; Fc part of the bought chimera not given
T2 sequence (looked up): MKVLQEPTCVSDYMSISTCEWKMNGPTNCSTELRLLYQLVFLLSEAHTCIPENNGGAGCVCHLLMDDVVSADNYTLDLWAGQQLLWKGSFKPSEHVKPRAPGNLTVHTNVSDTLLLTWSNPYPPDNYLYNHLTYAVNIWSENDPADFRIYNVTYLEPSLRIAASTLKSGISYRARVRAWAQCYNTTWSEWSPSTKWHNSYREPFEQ
In words: bead-based flow cytometric immunoassay, receptor-Fc chimera/Protein A-DyLight 649 (FIG. 19D).
Description: as §1
(In flow cytometry, cells or beads pass a laser one at a time.)

B1: IL-21/IL-2 hybrid protein (ligand)
chain: QGQDRHMIRMRQLIDIVDQLKNYVNDLVPEFLPAPEDVETNCEWSAFSCFQKAQLKSANTGNNERIINVSISNINVIVLELKGSETTFMCDSYEKKPPKEFLERFKSLLQKMIHQHLSSRTHGSEDS
notes: also called IL-21 variant
Consider B1, for which, in assay [1], the binding result is on record as “binds”.

B2: IL-21/IL-4 hybrid protein (ligand)
chain: QGQDRHMITLQEIIKTLNSLTEQKTLVPEFLPAPEDVETNCEWSAFSCFQKAQLKSAQQFHRHKQLIRFLKRLDRNLWGLAGLNSCPSCDSYEKKPPKEFLERFKSLLQKMIHQHLSSRTHGSEDS
notes: also called IL-21/IL-4 hybrid variant; IL-21/IL-4 variant protein
On to B2, for which, in assay [2], the binding result is recorded as “binds”.
